This is an account of results in paper PMC7665200, “Mus81-Mms4 endonuclease is an Esc2-STUbL-Cullin8 mitotic substrate impacting on genome integrity” (Nature Communications, 2020).

This assay has as its target T1, GST-Esc2 (Saccharomyces cerevisiae, UniProt Q06340 1-456).
T1 construct: Esc2, Saccharomyces cerevisiae, full-length gene cloned into BamHI/SalI of pGEX-6P-2; pGEX-6P-2 should place GST at the N-terminus (surmised from the vector); also called recombinant glutathione S-transferase (GST)-Esc2; GST-tagged Esc2; source: E. coli BL21 (DE3), purified (glutathione-Sepharose 4B, eluted with reduced glutathione, dialysed)
T1 sequence (looked up): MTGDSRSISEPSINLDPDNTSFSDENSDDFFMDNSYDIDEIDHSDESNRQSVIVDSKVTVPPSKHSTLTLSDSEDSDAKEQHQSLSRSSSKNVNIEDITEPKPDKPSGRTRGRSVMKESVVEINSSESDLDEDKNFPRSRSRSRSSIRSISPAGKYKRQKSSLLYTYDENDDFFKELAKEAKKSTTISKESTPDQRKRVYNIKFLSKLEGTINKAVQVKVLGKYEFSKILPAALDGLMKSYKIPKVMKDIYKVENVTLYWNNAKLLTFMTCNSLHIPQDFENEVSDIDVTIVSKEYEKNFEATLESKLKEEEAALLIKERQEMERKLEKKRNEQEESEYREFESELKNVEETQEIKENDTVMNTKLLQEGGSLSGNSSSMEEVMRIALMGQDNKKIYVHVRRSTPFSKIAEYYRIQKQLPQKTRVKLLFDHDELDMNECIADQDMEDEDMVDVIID
In words: peptide or protein array; PEPperPRINT microarray of 15-aa peptides covering the entire Mms4 and Mus81 with 14-aa overlaps, printed in duplicate; purified GST-Esc2 in solution, detected with anti-GST DyLight680. The conditions noted are these: both partners purified.

B1: Mms4 peptide RSKKSSQVGKLGIKK (peptide)
peptide: RSKKSSQVGKLGIKK
notes: 15-aa stretch of Mms4, S. cerevisiae; Immobilised on the array; It is printed as the 'consensus motif' of a response peak of overlapping 15-mers; source: synthetic peptide, printed on a peptide microarray (PEPperPRINT GmbH)
For B1, the binding result is “binds”.

B2: Mus81 peptide EKGTKKRKTRKYIPK (peptide)
peptide: EKGTKKRKTRKYIPK
notes: 15-aa stretch of Mus81, S. cerevisiae; Immobilised on the array; It is printed as the 'consensus motif' of a response peak of overlapping 15-mers; source: synthetic peptide, printed on a peptide microarray (PEPperPRINT GmbH)
Regarding B2, the binding result is reported as “binds”.
